According to the DeepSol protein solubility set:

Assay: soluble on expression in E. coli; label from the status in PepcDB or PDB records

Sequence | soluble on expression in E. coli
MSLTNRSGKDFADEKLLTVLAEVERDLEITYDDLQKQAIIGAMNQQFFILTGGPGTGKTTIINGFIETYARLHQLDLDPDHYNDDVFPILLAAPTGRASRRMNELTGLPAATIHRHLGLGQDEAEDALGNELSGALLIVDEFSMVDTWLANKLFQAIPGSMKVLLVGDADQLPSVGPGQIFADLLKIPEIPSVKLDKIFRQGDDSTITDLAHHIKDGQLPSDFTAKKPDRSYFEVSANFVPQMVEQIASAWQKRGNNPFELQILAPMYKGMAGINAMNVLLQNLFNPLNDRLEFALGDMKFREGDKVLHLVNDAEANVFNGDLGQIVELIAAKYTDSKQDELVMDFDGQELTYPRAEWYKITLAYAMSIHKSQGSEFSTVIVPMVSSYSRMLERNLLYTAITRAKQSLILLGEERAFAQAVAREGANRKTYLIERFMGENEGHHHHHH | not soluble
MSPAQSKPVESMTVFNTEEVDTKKQPMFFGKPLGVQRYDSYKYPVFDKLTQQQLGYFWRPEEVSLQKDRGDYQQLTPEQKHIFTSNLKYQIMLDSVQGRAPGMAFAPYCSLPELEGCINVWQFMEMIHSRSYTYIIKNVYSDPSEVFDTIIKDTNILQRAESVTKSYDDFVNDAHEYDSGNAWKFAREGHPAGTLDRRELKRKLYRAIANVNILEGIRFYVSFACSFAFGENKLMEGSAKILSLISRDESQHLVITQQILKKWADGDDPEMQEIAKEEKSFVKDMFRNTVNEEKAWADYLFKEGSMIGLNARLLNNYVEWIANRRMKAIGLDPIYDQPLRNNPLPWTEHWLNSKGQQNAPQETEIESYVIGGIKQDVKGDSFAGFKL | not soluble
SAAEGDFLMRYRAVSNKLKKRFLRKPNVAEASEQFGQLAKELKQQDCPQYAAFCNLAMARCEQTLFNAPGEALALTDAARLFLASEQETRALRAPGFDENMQAAMNCYSFAIKVYIEMNQPVMAARLSLELGNALKEMNRPGEAIIHFQRAAELQIQMPIEALLSLWEMASCKILTRDYDGALAVLSEMQHMCQERGLQLPGTNTPVGAFMDIIAKCEISRVLLLMLLEPPPQKLLPEHAQTLERYAWESFDSHSQMACQEKDTESLKALQTELW | soluble
MSLGSMSATPLQAGLKTLQLTEPFRIAHGTSTERQVLRLRWNGAVGEAPVVPYYKESAAVTLEWLQALDWNGSPAPKDGPRLGRLALDLLWHDAVGRDKRQTLGQMLHLNPAQTPPGCRSFSIPTDLDKFAEKVAQVSRQFQVLKLKTGSGNVEFDEAIVATARKAAPDAKLLVDANGGWTVEETAAILPKLVKYDLTLVEQPFHHDGGSESWRELKYLLPSHSIPLYADESAQGPDDVLTLAGLVDGVNVKLLKCGSIAEAQTMIRFARASGMGVLLGCMIESSVGVTAAAHLAPLADWIDLDGHLYVADDDYEGVSYDEQGRLHLRDLPGLGVTPREGHHHHHH | soluble
IVSFYQEQIIRSALALKLHQYEDTGGIIAAGTTSLPESDGATRNWDYRYCWMRDTYYTLQAFNTIGHFEESEKYFHYIENIVANELDRIQPLYTLDCSKKIEEIELDLEGYKGNKPVRVGNDAYTHIQNDVYGQILASITPLFTDRRLLHGNQFSTDIVYKLLAFIDKTMNEKDAGLWEFRHLKQLHCYTFLFHWVGAKSALKIGQLYGDHELIRKSTATIDKAAEMIERCYDPVRKVYTQAVGSTYLDASCIQLISMHYLDPSSEKARLHLKAIEEDLMVKDGLLFRYKHEDDFGKPEVTFLVCAFWYVDALASVGRIDDAIKAFESLLTYTNHVGLLSEDVGLDGSQWGNFPQTYSHVGLMNSAYRIAKKLDRPS | not soluble
MAHHHHHHMSTSLRHTALHAFHVGRRARMAPFSGYDMPINYAAGAVREHLHTREAASIFDVSHFGVVEVFGADREKFLEWLTPSAPSRMPSGKAALTMFLNDRAGVKDDCIVTRYDDRLVVVVNAGCKDKMIAYMRQSVADFTGDVALEMEDRAIVTVQGPKAASALAPHVEDLDKLLFMQGRQDVDIRGMRIKTLTRCSYSGEDGFDIVMREEDALPIVELLLQNPDVQAAGLAARDTLRTEAGLNLYSHELSEDIDPVAARCMWCVPKHRMTEGGFVGHERLAQLVKKAKELVPRVRVGILAAPERGPIPRNGTPVLVEGKCVGVVTSGVPSPTLGRNIALGYVDRSYSNIGQQVGLDVRGKLVKAEIVNSRFVAPRYYRG | not soluble
MGSDKIHHHHHHMTKHIHWDGNLSQEGFEIVKGEGGVIVCPTKVGYIIMTSDKKGLERKFEAKKRNRNKPGVVLCGSMEELRALAQLTPEIDAFYQKHWDEDILLGCILPWKAEAYEKLKAYGDGREELMTDIRGTSCFVIKFGVAGEQIAKEMWEKEGRMVYASSANPSGKGNRGKVEGIGERIESMVDLVIEADDYVASIQPDKTIETRYEQGVMVSMVDKDGKLIPQQGADSRSVEPCPVVIRKGLDIDKIMMHLSDQFNSWNYRQGEYY | not soluble
MSLGDQTLVRELSPLKNKGESTFRMGLYIRDSAAGVGTLTFYDPVSKKYGALGHVISDVDTKKPIVVHDGQIIRSSVTSIDKGSNGDPGEKLASFSNQRNTLGTIEKNSSFGIFGTLTEKDLKNHVSDEALPVTLSNHVKEGPAKILTVVEGEKVEEFDIEIVSSVPQKQPATKGLVIKVTDPKLLNTTGGIVQGMSGSPIIQDGKLVGAVTHVFVNDPTSGYGCHISWMLEEAGITFDQSKAKASEGHHHHHH | soluble
MSPTGNYLNAITNRRTIYNLKPELPQGVGLDDVKRTVHVILKNTPTAFNSQVNRAVIIVGDTHKRIWDAVASAMPTAEAKKRPESCRDEAYGSVIFFTDEGPTEKLQRDFPALAAAFPTCAAHTTGAVQIQSWTALELLGLGANLQHYNDYVKSALPQDVPIAWTVQSQLVFGVPTALPEEKTFINNVINVYH | soluble
MINIIGLGPGNLDYITKKGENLISTSDVLIGGKRNLESIKNFEGEKIVLDSNLREIIEYINNNKEKQISIIASGDPLIYGIGRYLSKNIDNKMLNMVSGISSLQYIFSKIYVDMNDVYITSSHGKVPDFDYILSHKKVCMVTDSKIGPKQISREIIDRNLNKIIVVGENLSYDNEKITIAKPEEIIRIDNFDMNVVVILDEE | not soluble
MSLVQSINTKVDLTIDATAYTGLTDYGKIMIGDKGFEFFNSRDVRKFVQIPWEEVDQVIVSVMLKGKWIPRYAIKTKRNGTYTFASKRPKEVLRKIRVYVDPANMVSSLSFFDVMKRSFRSIFSKKKNKNKEGHHHHHH | not soluble
MISDIRKDAEVRMDKCVEAFKTQISKIRTGRASPSLLDGIVVEYYGTPTPLRQLASVTVEDSRTLKINVFDRSMSPAVEKAIMASDLGLNPNSAGSDIRVPLPPLTEERRKDLTKIVRGEAEQARVAVRNVRRDANDKVKALLKDKEISEDDDRRSQDDVQKLTDAAIKKIEAALADKEAELMQF | soluble
MGSDKIHHHHHHMARFMGSETEYGISTPSAPFLSPIVTSTHAVVAYSTARGFGEHRVRWDYAQESPLRDTRGFDLRRYHQAPVVDPHAIGVANVFVPNGARFYVDHAHPEYSSPEVTNAWDAMVYDAAGDHILMQAVSDVASFTSQNRSVLDGHDPCPALKIYKNNVDGKGASYGSHENYLYSRETDFDVLAQALIPFFVCRQVIIGAGRVGLGPQGDKPGFQVSQRADYIEQEISLETTLNRGIINTRDEPHTDADHWGRLHVIIGDANMSQTANFLKFGMTSLVLDAIEAGVDFSELKLKNAVSEVAKVSHDLSLTHQLRLADGSELTAIDILRRYLDKVQPFAETPVEQRVTALWGEVLGLLENDLLSTSHLLDWTAKLALIKSFEARGLSINDPKMYLIDLQYSDIDPQKSLYHALVSKGRMKTLCSAQDIADAAATPPQDSRAYFRGRVMDKFGESVLAANWESLIVATSSAKEYRVHTSGLDTLTREEAGELVEKSATIDELIEGLEKENLTPLTAIQAI | not soluble
GSHMASMTGGQQMGRGSWKRAFLAFGSNIGDRFKHIQMALQLLSREKTVKLRNISSIFESEPMYFKDQTPFMNGCVEVETLLTPSELLKLCKKIEYEELQRVKHFDNGPRTIDLDIVMFLNSAGEDIIVNEPDLNIPHPRMLERTFVLEPLCELISPVHLHPVTAEPIVDHLKQLYDKQHDEDTLWKLVPLPYRSGVEPRFLKFKTATKLDEFTGETNRITVSPTYIMAIFNATPDSFSDGGEHFADIESQLNDIIKLCKDALYLHESVIIDVGGCSTRPNSIQASEEEEIRRSIPLIKAIRESTELPQDKVILSIDTYRSNVAKEAIKVGVDIINDISGGLFDSNMFAVIAENPEICYILSHTRGDISTMNRLAHYENFALGDSIQQEFVHNTDIQQLDDLKDKTVLIRNVGQEIGERYIKAIDNGVKRWQILIDPGLGFAKTWKQNLQIIRHIPILKNYSFTMNSNNSQVYVNLRNMPVLLGPSRKKFIGHITKDVDAKQRDFATGAVVASCIGFGSDMVRVHDVKNCSKSIKLADAIYKGLE | soluble
MSLKIIDFRLRPPAMGFLNARIYTRPDIRNRFTRQLGFEPAPSAEEKSLELMFEEMAAAGIEQGVCVGRNSSVLGSVSNADVAAVAKAYPDKFHPVGSIEAATRKEAMAQMQEILDLGIRIVNLEPGVWATPMHVDDRRLYPLYAFCEDNGIPVIMMTGGNAGPDITYTNPEHIDRVLGDFPDLTVVSSHGNWPWVQEIIHVAFRRPNLYLSPDMYLYNLPGHADFIQAANSFLADRMLFGTAYPMCPLKEYTEWFLTLPIKPDAMEKILHGNAERLLAQAGREGHHHHHH | soluble
MAAQAVSLLREVARLEAPLEELRALQSVVQAVPLHELREQAAELRLRPLFSLLNQNNREQTALCVSILERLLQAVEPIHLARNLRLDLQRGLTHPDDSVKTLTLSQIGRIVENSEAVTEILNNAELLKQIVYCIGGENLSVAKAAIKSLSRISLTQAVLEALFESNLLDDLKNVMKTNDVVRYRVYELIIDISSVSSESLNYCTTSGLVTQLLKELTGEDVLVRATCIEMVTSLAYTHHGRQYLAQEGVIDQISNIIVGADSDPFSGFYLPGFVKFFGNLAVMDSPQQICERYPVFLEKVFEMADSQDPTMIGVAVDTVGILGSSVEGKQVLQKTGTRFERVLMRVGYQAKNASTELKIRCLDAVSSLLYLSPEQQTDDFLGMTESWFSSMSRDSLELFRGISNQPFPELHCAALKVFTAIADQPWAQRLMFNSPGFVEFVMDRSVEHDKASKDAKYELVKALANSKTVAEIFGNSNYLRLRAYLSEGPYYVKPVATTAVEGAD | soluble
MSQVMEVVGGKWRLNVLWVINKYQSIRFNQLKREVNGITTIMLTRSLDILITNELVEKVDFQTLPLHVKYQLSSKGKSLMPLLKQINQWGKLYLLEHHHHHH | not soluble
MAHHHHHHMSSKRTEGTAADEERRRTSAASSGSSSVSSTDSDEASSSVSDSSSSGSGSSSDSESSDSERPSSTPQRQSAAAAERATSTQQLQQQRHVQLNPELRFERPDKEYIPLPPLRDMQDMVKVLFLLSTDKKRYPDGRHRTLDYFRVAVEMFVTEVRQEYKRQYQQAQRNGRAMQRFTWKNSGELAICFACCCDNVKLLYDSLQPGPLKPLWDAFVGQLPPMLIVQSRVPETMLSSQTYHTKYMDWVKGGTRYGGEQSTANVRFPSVADRRVKVETYLRSGAGYKIEAVQVGSTPAAPAAVPAAVAPRPSLAAAAAPMQALETRAPFAGRLPGTGSAKVPVAPGVGGPRPPVKVPMKHVGGGVAHGSVTTAAAPPLASTSVKQMPPEMKHLFWLSVLAHVKGGEASRAFPDDRLEALPGLLRLCEMTEHTEEMCILMDVLAASSSGVQTVFERLGGLLSFRRFASHFIQSEEAEPLMQLVEQLARWRVAAWGSTSQQAWQTDMNQRRTRDLMWLRTLPLIPEAKRAAWGALLLVMEQRYIFKAPRPDDTTAVDNPLKRRRSEVELGDLHAVLSDNVDMQRWVVPRVNVFSAVRLPVELRVPPLCTKLEENTVRFLNAKREYAEKMQVTWRERLEKILSAQPRAPGPAVPVPLWYDPYALLRVASPQP | soluble
